Measurements published in article PMC10702411.

Columns and labels:
[1] = biological target: third BIR domain of BIRC2 (BIRC2_(BIR3)), GST cleaved (human) (UniProt Q13490); assay: other fluorescence titration
[2] = biological target: C-terminal fluorescein-labeled H3 peptide (1–12) (UniProt P68431); assay: MST

Chain of third BIR domain of BIRC2 (BIRC2_(BIR3)), GST cleaved (human) (Q13490 261-346): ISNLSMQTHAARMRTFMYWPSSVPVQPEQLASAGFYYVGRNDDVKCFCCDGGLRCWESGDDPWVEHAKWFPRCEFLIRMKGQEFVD

Row | Kd [1] | Kd [2] | Substance
1 | 400 nM | – | H3_(1–12) peptide (residues 1–12 of H3) (from UniProt P68431 2-13)
2 | – | 340 nM | third BIR domain of BIRC2 (BIRC2_(BIR3)), GST cleaved (from UniProt Q13490 261-346) (domain or fragment)
